T1: IRP1 (iron regulatory protein 1) (rabbit, UniProt Q01059 1-889)
T1 sequence: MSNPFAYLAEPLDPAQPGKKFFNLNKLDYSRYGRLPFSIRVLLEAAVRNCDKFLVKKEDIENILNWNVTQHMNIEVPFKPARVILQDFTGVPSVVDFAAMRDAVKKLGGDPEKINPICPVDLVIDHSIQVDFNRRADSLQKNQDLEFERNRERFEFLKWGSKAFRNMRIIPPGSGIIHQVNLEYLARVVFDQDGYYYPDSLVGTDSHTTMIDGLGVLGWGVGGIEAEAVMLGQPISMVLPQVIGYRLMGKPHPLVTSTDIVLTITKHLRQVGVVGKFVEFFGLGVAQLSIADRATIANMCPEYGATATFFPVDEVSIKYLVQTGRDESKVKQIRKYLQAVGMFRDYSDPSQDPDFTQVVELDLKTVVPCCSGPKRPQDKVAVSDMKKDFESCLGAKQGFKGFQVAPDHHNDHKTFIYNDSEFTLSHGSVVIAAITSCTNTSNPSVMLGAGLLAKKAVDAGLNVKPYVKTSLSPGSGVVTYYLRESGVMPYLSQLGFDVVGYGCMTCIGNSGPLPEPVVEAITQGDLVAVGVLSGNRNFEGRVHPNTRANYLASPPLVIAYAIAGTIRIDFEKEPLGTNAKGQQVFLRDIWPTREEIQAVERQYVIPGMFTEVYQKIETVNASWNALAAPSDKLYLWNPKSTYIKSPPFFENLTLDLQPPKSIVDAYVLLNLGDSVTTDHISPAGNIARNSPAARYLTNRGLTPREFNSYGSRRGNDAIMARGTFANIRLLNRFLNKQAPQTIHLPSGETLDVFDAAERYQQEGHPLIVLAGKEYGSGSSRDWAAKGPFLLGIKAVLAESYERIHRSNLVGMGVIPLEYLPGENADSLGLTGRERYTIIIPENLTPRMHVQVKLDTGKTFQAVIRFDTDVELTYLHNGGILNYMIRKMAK


Experiments:
Conditions in all cases: protein: recombinant; tags: Ni-chelate purified; hairpin with mid-helix bulge C and hexaloop
[1] = target: T1, IRP1 (iron regulatory protein 1); test: stopped-flow fluorescence anisotropy (koff/kon); no Mn2+, 100 mM KCl; kon 51.5 uM-1 s-1, koff 7.0 s-1; 40 mM HEPES pH 7.2, 100 mM KCl, 1 mM MgCl2 (Methods; not listed in the Figure 2 legend), 5% glycerol, 2% 2-mercaptoethanol, 25 C; RNA 50 nM with IRP1 0.05-1 uM; eIF4F 0.1 uM with RNA 0.1-0.5 uM
[2] = target: T1, IRP1 (iron regulatory protein 1); test: stopped-flow fluorescence anisotropy (koff/kon); 5 uM Mn2+; kon 35.2, koff 7.6; 40 mM HEPES pH 7.2, 100 mM KCl, 1 mM MgCl2 (Methods; not listed in the Figure 2 legend), 5% glycerol, 2% 2-mercaptoethanol, 25 C; RNA 50 nM with IRP1 0.05-1 uM; eIF4F 0.1 uM with RNA 0.1-0.5 uM
[3] = target: T1, IRP1 (iron regulatory protein 1); test: stopped-flow fluorescence anisotropy (koff/kon); 150 mM KCl; kon 39, koff 7.4; 40 mM HEPES pH 7.2, 100 mM KCl, 1 mM MgCl2 (Methods; not listed in the Figure 2 legend), 5% glycerol, 2% 2-mercaptoethanol, 25 C; RNA 50 nM with IRP1 0.05-1 uM; eIF4F 0.1 uM with RNA 0.1-0.5 uM
[4] = target: T1, IRP1 (iron regulatory protein 1); test: stopped-flow fluorescence anisotropy (koff/kon); 5 uM Mn2+; kon 176, koff 9.7; 40 mM HEPES pH 7.2, 100 mM KCl, 1 mM MgCl2 (Methods; not listed in the Figure 2 legend), 5% glycerol, 2% 2-mercaptoethanol, 25 C; RNA 50 nM with IRP1 0.05-1 uM; eIF4F 0.1 uM with RNA 0.1-0.5 uM
[5] = target: T1, IRP1 (iron regulatory protein 1); test: stopped-flow fluorescence anisotropy (koff/kon); 150 mM KCl; kon 209, koff 6.3; 40 mM HEPES pH 7.2, 100 mM KCl, 1 mM MgCl2 (Methods; not listed in the Figure 2 legend), 5% glycerol, 2% 2-mercaptoethanol, 25 C; RNA 50 nM with IRP1 0.05-1 uM; eIF4F 0.1 uM with RNA 0.1-0.5 uM
[6] = target: T1, IRP1 (iron regulatory protein 1); test: stopped-flow fluorescence anisotropy (koff/kon); no Mn2+, 100 mM KCl; kon 400 uM-1 s-1, koff 6.2 s-1; 40 mM HEPES pH 7.2, 100 mM KCl, 1 mM MgCl2 (Methods; not listed in the Figure 2 legend), 5% glycerol, 2% 2-mercaptoethanol, 25 C; RNA 50 nM with IRP1 0.05-1 uM; eIF4F 0.1 uM with RNA 0.1-0.5 uM

| Binder | Kd [1] | Kd [2] | Kd [3] | Kd [4] | Kd [5] | Kd [6] |
| --- | --- | --- | --- | --- | --- | --- |
| CCUCAUCUUUGUCAGUGCACAAAAUGGCG (structured_RNA) [ACO2 IRE-RNA, fluorescein labeled (FIACO2 IRE-RNA)] | 136 ± 2.9 nM | 217 ± 7.6 nM | 190 ± 9 nM |  |  |  |
| GUUCUUGCUUCAACAGUGUUUGAACGGAAC (structured_RNA) [FRT IRE-RNA, fluorescein labeled (FIFRT IRE-RNA)] |  |  |  | 55 ± 2.7 nM | 30 ± 0.7 nM | 15.5 ± 0.5 nM |

Reference: PMC4041422, “Rapid kinetics of iron responsive element (IRE) RNA/iron regulatory protein 1 and IRE-RNA/eIF4F complexes respond differently to metal ions”
